Source: publication PMC3017548

Experiments:
Experiment in all cases: filter binding
[1] = system: Gadd45a V49R (Xenopus tropicalis); conditions: 10 mM Tris-HCl pH 7.4, 10 mM KCl, 1 mM MgCl2; 2.5 or 1.3 uM protein, ~2 ng 32P-MCS RNA, 20 min; temperature not given; nitrocellulose filter
[2] = system: Gadd45a R34G (Xenopus tropicalis); conditions: 10 mM Tris-HCl pH 7.4, 10 mM KCl, 1 mM MgCl2; 2.5 or 1.3 uM protein, ~2 ng 32P-MCS RNA, 20 min; temperature not given; nitrocellulose filter
[3] = system: Gadd45a G39A (Xenopus tropicalis); conditions: loss of discrimination between vector and total RNA in competition; 10 mM Tris-HCl pH 7.4, 10 mM KCl, 1 mM MgCl2; 2.5 or 1.3 uM protein, ~2 ng 32P-MCS RNA, 20 min; temperature not given; nitrocellulose filter
[4] = system: Gadd45a K45A (Xenopus tropicalis); conditions: loss of discrimination between vector and total RNA in competition; 10 mM Tris-HCl pH 7.4, 10 mM KCl, 1 mM MgCl2; 2.5 or 1.3 uM protein, ~2 ng 32P-MCS RNA, 20 min; temperature not given; nitrocellulose filter

MCS RNA (multiple cloning site transcript)
binding signal (fold of wild type binding) [1]: 3
binding signal (fold of wild type binding (comparable)) [2]: 1
binding signal (fold of wild type binding (comparable)) [3]: 1
binding signal (fold of wild type binding (comparable)) [4]: 1
